These results are taken from US20170267764A1 (INNATE PHARMA, published 2017).

Positions count from the first letter of the chain named.

Sequences and labels used below:
T1: human MICA allele MICA*001 (human, UniProt Q29983 24-297)
T1 construct: Expressed on transfected C1R cells; also called MICA*01; C1R-MICA*001
T1 sequence: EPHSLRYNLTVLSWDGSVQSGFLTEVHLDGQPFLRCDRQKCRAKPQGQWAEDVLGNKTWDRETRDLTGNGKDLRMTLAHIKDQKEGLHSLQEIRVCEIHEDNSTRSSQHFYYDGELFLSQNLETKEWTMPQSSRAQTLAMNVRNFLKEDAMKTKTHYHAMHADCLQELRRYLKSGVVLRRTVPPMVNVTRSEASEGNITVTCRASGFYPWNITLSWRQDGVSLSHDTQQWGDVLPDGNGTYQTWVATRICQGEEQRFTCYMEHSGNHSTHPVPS

T2: human MICA allele MICA*008 (human, UniProt Q29983 24-297)
T2 construct: Expressed on transfected C1R cells; also called MICA*08; C1R-MICA*008
T2 chain: T1 sequence with T24A, C36Y, K125E, M129V, K173E, G206S, W210R, T213I, S215T, Q251R

T3: human MICA allele MICA*007 (human, UniProt Q29983 24-297)
T3 construct: Expressed on transfected C1R cells; also called MICA*07; C1R-MICA*007
T3 chain: T1 sequence with T24A, K125E

T4: human MICA allele MICA*004 (human, UniProt Q29983 24-297)
T4 construct: Expressed on transfected C1R cells; also called MICA*04; C1R-MICA*004
T4 chain: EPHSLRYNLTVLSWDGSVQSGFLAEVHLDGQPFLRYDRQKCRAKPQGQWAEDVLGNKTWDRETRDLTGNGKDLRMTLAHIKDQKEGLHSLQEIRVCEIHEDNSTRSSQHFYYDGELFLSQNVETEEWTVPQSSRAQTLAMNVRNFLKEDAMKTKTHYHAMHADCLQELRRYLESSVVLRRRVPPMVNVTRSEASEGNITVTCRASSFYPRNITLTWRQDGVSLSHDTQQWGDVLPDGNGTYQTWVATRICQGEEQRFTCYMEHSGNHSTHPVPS

B1: mAb4 (antibody, V domains shown)
VH: QVQLQESGPGLVKPSETLSLTCTVSGYSITSDYAWNWIRQPPGKGLEWMGFVSYSGTTKYNPSLKSRVTISRDTSKNQFSLKLSSVTAADTAVYYCARGYGFDYWGQGTTVTVSS
VL: EIVLTQSPATLSLSPGERATLSCSATSSISSIYFHWYQQKPGQAPRLLIYRTSNLASGIPARFSGSGSGTDYTLTISSLEPEDFAVYYCQQGTTIPFTFGQGTKLEIK
notes: Produced in CHO cells as human IgG1 with huCk constant domain
B2: mAb12 (antibody, V domains shown)
VH: B1 VH with V68I, K76E
VL: B1 VL with F84V
notes: as for B1
B3: mAb7 (antibody, V domains shown)
VH: B1 VH with K76E
VL: B1 VL
notes: as for B1
B4: mAb5 (antibody, V domains shown)
VH: B1 VH
VL: B1 VL with D71S
notes: as for B1
B5: mAb2 (antibody, V domains shown)
VH: B1 VH with M49I
VL: B1 VL with D71S
notes: as for B1
B6: mAb1 (antibody, V domains shown)
VH: B1 VH with M49I
VL: B1 VL
notes: Produced in CHO cells as human IgG1 with huCk constant domain; also called anti-MICA mAb1; anti-MICA antibody mAb1
B7: mAb8 (antibody, V domains shown)
VH: B1 VH with K76E
VL: B1 VL with D71S
notes: as for B1
B8: mAb6 (antibody, V domains shown)
VH: B1 VH
VL: B1 VL with F84V
notes: as for B1
B9: mAb3 (antibody, V domains shown)
VH: B1 VH with M49I
VL: B1 VL with F84V
notes: as for B1
B10: mAb11 (antibody, V domains shown)
VH: B1 VH with V68I, K76E
VL: B1 VL with D71S
notes: as for B1
B11: mAb9 (antibody, V domains shown)
VH: B1 VH with K76E
VL: B1 VL with F84V
notes: as for B1
B12: mAb10 (antibody, V domains shown)
VH: B1 VH with V68I, K76E
VL: B1 VL
notes: as for B1

One test addresses T1, human MICA allele MICA*001. The experiment in a line: flow cytometry, C1R-MICA*001 transfectant cells. As for the experimental part: (§1) The binding of the antibodies in Table 2 of Example 1 were tested for binding to MICA-expressing C1R transfectant cells (ATCC reference CRL-1993™) transfected with RSV.5neo vectors (GenBank (NCBI) under Accession number M83237), as described in Salih et al. (2003) Blood 102(4): […], referred to as C1R-MICA*001, C1R-MICA*004, C1R-MICA*007 and C1R-MICA*008. Binding was analyzed by flow cytometry.
(§2) Cells were harvested and stained in PBS 1×/BSA 0.2%/EDTA 2 mM buffer during 30 minutes at 4° C. using a dose-range of the anti-MICA mAbs. After two washes in staining buffer, cells were stained for 30 min at 4° C. with mouse anti-human IgG1-PE monoclonal antibodies (1/11). After two washes, stainings were acquired on a BD FACS Canto II and analyzed using the FlowJo software.
For orientation: Flow cytometry measures light scatter and fluorescence of single cells or particles in a stream.
On to B1, for which the midpoint of the response, the EC50, lay at 0.316 µg/mL.

As to B2, it took 0.453 µg/mL to reach a half-maximal effect (EC50).

B3 had an EC50 of 0.288 µg/mL.

In turn, B4 returned an EC50 of 0.318 µg/mL.

Molecule B5 displayed an EC50 of 0.151 µg/mL.

In turn, B6 showed an EC50 of 0.184 µg/mL.

With B7, the EC50 stood at 0.191 µg/mL.

For the molecule B8, the EC50 turned out to be 0.407 µg/mL.

The molecule B9 had a concentration giving a half-maximal response (EC50) of 0.265 µg/mL.

B10 registered an EC50 of 0.32 µg/mL.

As to B11, the response was half-maximal at 0.318 µg/mL (EC50).

Turning to B12, the EC50 amounted to 0.307 µg/mL.

Another test has as its target T2, human MICA allele MICA*008. The experiment in a line: flow cytometry, C1R-MICA*008 transfectant cells. On the procedure:
as §1, §2
Regarding B1, a half-maximal response (EC50) required 0.0859 µg/mL.

Molecule B2 returned an EC50 of 0.0642 µg/mL.

Molecule B3 had an EC50 of 0.0871 µg/mL.

In turn, B4 registered an EC50 of 0.0958 µg/mL.

In turn, B5 showed an EC50 of 0.0699 µg/mL.

Molecule B6 returned an EC50 of 0.0612 µg/mL.

On to B7, for which the midpoint of the response, the EC50, lay at 0.0551 µg/mL.

Consider B8, for which the EC50 turned out to be 0.0953 µg/mL.

As for B9, the EC50 stood at 0.0822 µg/mL.

For the molecule B10, it took 0.0789 µg/mL to reach a half-maximal effect (EC50).

With B11, a half-maximal effect (EC50) was put at 0.0515 µg/mL.

In the case of B12, the EC50 was 0.144 µg/mL.

Another test addresses T1, human MICA allele MICA*001. Nature of the test: cell-based or functional assay.
For the molecule B6, the “EC50 (read off the curve), ADCC % specific lysis [panel C1R MICA*001]” value was around 0.003 µg/mL.

Another test deals with T2, human MICA allele MICA*008. Nature of the test: cell-based or functional assay.
For B6, the “EC50 (read off the curve), ADCC % specific lysis [panel C1R MICA*008]” value was around 0.0002 µg/mL.

Another test addresses T3, human MICA allele MICA*007. Nature of the test: flow cytometry, C1R-MICA*007 transfectant cells. As for the experimental part: as §1, §2
The molecule B1 yielded an EC50 of 0.0875 µg/mL.

For B2, the EC50 turned out to be 0.086 µg/mL.

For B3, a half-maximal effect (EC50) was put at 0.0668 µg/mL.

On to B4, for which the EC50 came out at 0.0493 µg/mL.

Take B5: the EC50 was 0.0502 µg/mL.

For B6, the EC50 amounted to 0.033 µg/mL.

B7 registered an EC50 of 0.0462 µg/mL.

In the case of B8, the EC50 was determined as 0.0718 µg/mL.

B9 had an EC50 of 0.0612 µg/mL.

Regarding B10, the EC50 is 0.0513 µg/mL.

Molecule B11 returned an EC50 of 0.0519 µg/mL.

In turn, B12 had an EC50 of 0.0498 µg/mL.

The next test concerns the target T1, human MICA allele MICA*001. The experiment in a line: flow cytometry, C1R-MICA*001 transfectant cells; reference: parental antibody. As for the experimental part:
as §1, §2
With B5, the “fold improvement in affinity compared to the parental antibody” value was around 3 fold.

Take B6: the “fold improvement in affinity compared to the parental antibody” value was 2.4 fold.

The next test has as its target T4, human MICA allele MICA*004. The experiment in a line: flow cytometry, C1R-MICA*004 transfectant cells. As for the experimental part:
as §1, §2
In turn, B1 came in with an EC50 of 0.063 µg/mL.

B2 came in with an EC50 of 0.0672 µg/mL.

B3 came in with an EC50 of 0.0616 µg/mL.

Take B4: the midpoint of the response, the EC50, lay at 0.0762 µg/mL.

Consider B5, for which a half-maximal effect (EC50) was put at 0.0381 µg/mL.

In turn, B6 displayed an EC50 of 0.0417 µg/mL.

Molecule B7 returned an EC50 of 0.0481 µg/mL.

B8 registered an EC50 of 0.0838 µg/mL.

Molecule B9 gave an EC50 of 0.0608 µg/mL.

The molecule B10 yielded an EC50 of 0.0614 µg/mL.

Molecule B11 had an EC50 of 0.0438 µg/mL.

B12 displayed an EC50 of 0.0631 µg/mL.

A word on the EC50: it is the concentration needed to bring the measured effect to its halfway point. A high value points to a less potent agent.
